Assay results: patent US20190177417A1 (BIOATLA, published 2019)

T1: Axl protein (human, UniProt P30530 26-451)
T1 construct: extracellular domain; also called human Axl; hAxl
T1 sequence (looked up): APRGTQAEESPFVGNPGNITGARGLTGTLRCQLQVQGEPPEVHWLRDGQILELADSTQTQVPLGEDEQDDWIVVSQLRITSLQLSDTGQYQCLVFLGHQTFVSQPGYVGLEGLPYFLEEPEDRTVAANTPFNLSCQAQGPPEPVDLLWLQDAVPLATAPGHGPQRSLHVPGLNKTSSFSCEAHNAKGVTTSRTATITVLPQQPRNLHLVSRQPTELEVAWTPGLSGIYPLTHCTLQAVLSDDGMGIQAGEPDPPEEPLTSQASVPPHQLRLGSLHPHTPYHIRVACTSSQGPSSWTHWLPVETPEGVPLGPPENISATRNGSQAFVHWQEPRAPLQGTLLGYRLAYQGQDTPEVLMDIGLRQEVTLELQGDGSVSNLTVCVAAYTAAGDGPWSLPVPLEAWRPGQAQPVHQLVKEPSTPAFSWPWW


What was measured:
[1] = target: T1, Axl protein; assay: ELISA, 1:3 dilution, pH 6.0 over pH 7.4
[2] = target: T1, Axl protein; assay: ELISA, 1:9 dilution, pH 6.0 over pH 7.4

Binder | Affinity ELISA CPE mutant ratio (1:3, pH 6.0/7.4) [1] [ratio] | Affinity ELISA CPE mutant ratio (1:9, pH 6.0/7.4) [2] [ratio]
HC-F105S (antibody, V domains shown) VH: EVQLVQSGAEVKKPGATVKISCKVSGYSFTGHTMNWIRQPPGKGLEWIGLIKPSNGGTSYNQKFKGRVTISADKSISTAYLQWSSLKASDTAMYYCAHGHYESYSAMDYWGQGTLVTVSS VL: DIQMTQSPSSLSASVGDRVTITCKASQDVSSAVAWYQQKPGQAPRLLIYWASTRHTGVPSRFSGSGSGTEFTLTISSLQPDDFATYYCQEHFSTPLTFGQGTKVEIK | 3.9 | 4.54
HC-E102F (antibody, V domains shown) VH: EVQLVQSGAEVKKPGATVKISCKVSGYSFTGHTMNWIRQPPGKGLEWIGLIKPSNGGTSYNQKFKGRVTISADKSISTAYLQWSSLKASDTAMYYCAHGHYFSYFAMDYWGQGTLVTVSS VL: DIQMTQSPSSLSASVGDRVTITCKASQDVSSAVAWYQQKPGQAPRLLIYWASTRHTGVPSRFSGSGSGTEFTLTISSLQPDDFATYYCQEHFSTPLTFGQGTKVEIK | 1.88 | 1.36
HC-E102A (antibody, V domains shown) VH: EVQLVQSGAEVKKPGATVKISCKVSGYSFTGHTMNWIRQPPGKGLEWIGLIKPSNGGTSYNQKFKGRVTISADKSISTAYLQWSSLKASDTAMYYCAHGHYASYFAMDYWGQGTLVTVSS VL: DIQMTQSPSSLSASVGDRVTITCKASQDVSSAVAWYQQKPGQAPRLLIYWASTRHTGVPSRFSGSGSGTEFTLTISSLQPDDFATYYCQEHFSTPLTFGQGTKVEIK | 1.54 | 1.69
HC-E102I (antibody, V domains shown) VH: EVQLVQSGAEVKKPGATVKISCKVSGYSFTGHTMNWIRQPPGKGLEWIGLIKPSNGGTSYNQKFKGRVTISADKSISTAYLQWSSLKASDTAMYYCAHGHYISYFAMDYWGQGTLVTVSS VL: DIQMTQSPSSLSASVGDRVTITCKASQDVSSAVAWYQQKPGQAPRLLIYWASTRHTGVPSRFSGSGSGTEFTLTISSLQPDDFATYYCQEHFSTPLTFGQGTKVEIK | 2.02 | 1.7
HC-F105N (antibody, V domains shown) VH: EVQLVQSGAEVKKPGATVKISCKVSGYSFTGHTMNWIRQPPGKGLEWIGLIKPSNGGTSYNQKFKGRVTISADKSISTAYLQWSSLKASDTAMYYCAHGHYESYNAMDYWGQGTLVTVSS VL: DIQMTQSPSSLSASVGDRVTITCKASQDVSSAVAWYQQKPGQAPRLLIYWASTRHTGVPSRFSGSGSGTEFTLTISSLQPDDFATYYCQEHFSTPLTFGQGTKVEIK | 2.36 | 2.64
HC-E102D (antibody, V domains shown) VH: EVQLVQSGAEVKKPGATVKISCKVSGYSFTGHTMNWIRQPPGKGLEWIGLIKPSNGGTSYNQKFKGRVTISADKSISTAYLQWSSLKASDTAMYYCAHGHYDSYFAMDYWGQGTLVTVSS VL: DIQMTQSPSSLSASVGDRVTITCKASQDVSSAVAWYQQKPGQAPRLLIYWASTRHTGVPSRFSGSGSGTEFTLTISSLQPDDFATYYCQEHFSTPLTFGQGTKVEIK | 2.67 | 2.85

Other lines, results leading:

Affinity ELISA CPE mutant ratio (1:3, pH 6.0/7.4) [1] [ratio] | Affinity ELISA CPE mutant ratio (1:9, pH 6.0/7.4) [2] [ratio] | Binder
0.912 | 2.26 | HC-S103Q (antibody, V domains shown) VH: EVQLVQSGAEVKKPGATVKISCKVSGYSFTGHTMNWIRQPPGKGLEWIGLIKPSNGGTSYNQKFKGRVTISADKSISTAYLQWSSLKASDTAMYYCAHGHYEQYFAMDYWGQGTLVTVSS VL: DIQMTQSPSSLSASVGDRVTITCKASQDVSSAVAWYQQKPGQAPRLLIYWASTRHTGVPSRFSGSGSGTEFTLTISSLQPDDFATYYCQEHFSTPLTFGQGTKVEIK
1.84 | 1.74 | HC-Y104C (antibody, V domains shown) VH: EVQLVQSGAEVKKPGATVKISCKVSGYSFTGHTMNWIRQPPGKGLEWIGLIKPSNGGTSYNQKFKGRVTISADKSISTAYLQWSSLKASDTAMYYCAHGHYESCFAMDYWGQGTLVTVSS VL: DIQMTQSPSSLSASVGDRVTITCKASQDVSSAVAWYQQKPGQAPRLLIYWASTRHTGVPSRFSGSGSGTEFTLTISSLQPDDFATYYCQEHFSTPLTFGQGTKVEIK
1.32 | 1.8 | HC-Y104E (antibody, V domains shown) VH: EVQLVQSGAEVKKPGATVKISCKVSGYSFTGHTMNWIRQPPGKGLEWIGLIKPSNGGTSYNQKFKGRVTISADKSISTAYLQWSSLKASDTAMYYCAHGHYESEFAMDYWGQGTLVTVSS VL: DIQMTQSPSSLSASVGDRVTITCKASQDVSSAVAWYQQKPGQAPRLLIYWASTRHTGVPSRFSGSGSGTEFTLTISSLQPDDFATYYCQEHFSTPLTFGQGTKVEIK
3.46 | 4.02 | HC-F105T (antibody, V domains shown) VH: EVQLVQSGAEVKKPGATVKISCKVSGYSFTGHTMNWIRQPPGKGLEWIGLIKPSNGGTSYNQKFKGRVTISADKSISTAYLQWSSLKASDTAMYYCAHGHYESYTAMDYWGQGTLVTVSS VL: DIQMTQSPSSLSASVGDRVTITCKASQDVSSAVAWYQQKPGQAPRLLIYWASTRHTGVPSRFSGSGSGTEFTLTISSLQPDDFATYYCQEHFSTPLTFGQGTKVEIK
2.17 | 2.91 | HC-Y101N (antibody, V domains shown) VH: EVQLVQSGAEVKKPGATVKISCKVSGYSFTGHTMNWIRQPPGKGLEWIGLIKPSNGGTSYNQKFKGRVTISADKSISTAYLQWSSLKASDTAMYYCAHGHNESYFAMDYWGQGTLVTVSS VL: DIQMTQSPSSLSASVGDRVTITCKASQDVSSAVAWYQQKPGQAPRLLIYWASTRHTGVPSRFSGSGSGTEFTLTISSLQPDDFATYYCQEHFSTPLTFGQGTKVEIK
2.54 | 2.42 | HC-Y104P (antibody, V domains shown) VH: EVQLVQSGAEVKKPGATVKISCKVSGYSFTGHTMNWIRQPPGKGLEWIGLIKPSNGGTSYNQKFKGRVTISADKSISTAYLQWSSLKASDTAMYYCAHGHYESPFAMDYWGQGTLVTVSS VL: DIQMTQSPSSLSASVGDRVTITCKASQDVSSAVAWYQQKPGQAPRLLIYWASTRHTGVPSRFSGSGSGTEFTLTISSLQPDDFATYYCQEHFSTPLTFGQGTKVEIK
1.59 | 1 | HC-T033I (antibody, V domains shown) VH: EVQLVQSGAEVKKPGATVKISCKVSGYSFTGHIMNWIRQPPGKGLEWIGLIKPSNGGTSYNQKFKGRVTISADKSISTAYLQWSSLKASDTAMYYCAHGHYESYFAMDYWGQGTLVTVSS VL: DIQMTQSPSSLSASVGDRVTITCKASQDVSSAVAWYQQKPGQAPRLLIYWASTRHTGVPSRFSGSGSGTEFTLTISSLQPDDFATYYCQEHFSTPLTFGQGTKVEIK
2.58 | 1.18 | HC-H100P (antibody, V domains shown) VH: EVQLVQSGAEVKKPGATVKISCKVSGYSFTGHTMNWIRQPPGKGLEWIGLIKPSNGGTSYNQKFKGRVTISADKSISTAYLQWSSLKASDTAMYYCAHGPYESYFAMDYWGQGTLVTVSS VL: DIQMTQSPSSLSASVGDRVTITCKASQDVSSAVAWYQQKPGQAPRLLIYWASTRHTGVPSRFSGSGSGTEFTLTISSLQPDDFATYYCQEHFSTPLTFGQGTKVEIK
